{"source": "patent US6531286", "about": "“Homogeneous detection of a target through nucleic acid ligand-ligand beacon interaction” (Gilead Sciences, Inc.)", "key": {"[1]": {"target": "T1, PDGF-AB (platelet-derived growth factor AB dimer) (Homo sapiens, UniProt P04085;P01127 P04085:87-211,P01127:82-190)", "T1 sequence (P01127 82-190, chain 2 of 2, other chains not shown)": "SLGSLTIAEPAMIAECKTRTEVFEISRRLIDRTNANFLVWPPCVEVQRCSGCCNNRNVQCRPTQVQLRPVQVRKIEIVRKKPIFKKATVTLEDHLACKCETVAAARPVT", "experiment": "competition; specificity control, no concentration-dependent signal reduction; 100 nM aptamer, PBSM, 4 uM tRNA, 37C", "conditions": "tags: R & D Systems; chain copies: heterodimer A+B (stated); predicted stem-loop", "method": "In the example shown in FIG. 4C, TAQ-nucleic acid ligand (100 nM) was mixed with increasing concentrations of PDGF in PBSM buffer containing 4 μM tRNA at 37° C. for 10 minutes. Then 110 nM TAQ-ligand beacon was added, incubated for an additional 10 minutes at the same temperature and fluorescence was measured."}, "[2]": {"target": "Taq DNA polymerase (Thermus aquaticus, UniProt P19821 P19821:1-832)", "sequence (P19821 whole entry, one chain of several)": "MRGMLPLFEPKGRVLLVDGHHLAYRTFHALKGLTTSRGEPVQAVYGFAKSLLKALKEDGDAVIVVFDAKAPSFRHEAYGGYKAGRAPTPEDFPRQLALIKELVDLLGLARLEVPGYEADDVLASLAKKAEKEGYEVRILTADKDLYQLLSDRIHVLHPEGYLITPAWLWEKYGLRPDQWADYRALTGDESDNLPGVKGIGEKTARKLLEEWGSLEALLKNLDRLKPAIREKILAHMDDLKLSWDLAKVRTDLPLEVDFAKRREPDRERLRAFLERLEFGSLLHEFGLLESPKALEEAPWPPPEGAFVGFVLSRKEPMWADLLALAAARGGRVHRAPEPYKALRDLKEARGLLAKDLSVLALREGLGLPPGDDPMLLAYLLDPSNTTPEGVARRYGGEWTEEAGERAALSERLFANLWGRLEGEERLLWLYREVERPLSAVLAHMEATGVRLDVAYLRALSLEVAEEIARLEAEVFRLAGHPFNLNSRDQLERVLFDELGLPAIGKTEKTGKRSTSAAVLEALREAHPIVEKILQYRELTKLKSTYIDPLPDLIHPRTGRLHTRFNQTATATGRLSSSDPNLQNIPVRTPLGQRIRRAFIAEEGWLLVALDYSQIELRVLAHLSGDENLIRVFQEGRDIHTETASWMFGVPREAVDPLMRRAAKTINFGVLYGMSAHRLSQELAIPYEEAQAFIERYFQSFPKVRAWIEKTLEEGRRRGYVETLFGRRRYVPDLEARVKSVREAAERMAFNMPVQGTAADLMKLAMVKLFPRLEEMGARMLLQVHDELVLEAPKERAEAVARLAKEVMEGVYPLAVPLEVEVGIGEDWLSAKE", "experiment": "competition; ligand beacon (SEQ:4) fluorescence decreases with protein; PBSM buffer, 4 uM tRNA, 37C; FIG. 3A lists aptamer as SEQ:9", "conditions": "tags: Roche Molecular Systems; predicted stem-loop", "method": "(§1) Open circles represent the fluorescence signal obtained when the 100 nM PDGF aptamer was first incubated with 100 nM PDGF ligand beacon before the protein was added. Closed circles indicate the signal generated when 100 nM PDGF ligand beacon was mixed with increasing concentration of the PDGF AB-dimer in the absence of the aptamer. TAQ DNA Polymerase An assay using constant concentrations of TAQ nucleic acid ligand and TAQ ligand beacon, and varying concentrations of TAQ DNA polymerase, was carried out as described above. Again, the fluorescence emission decreased with increasing amounts of the ligand Taq Polymerase. Human L-Selectin A fixed concentration of L-selectin aptamer was mixed with increasing concentration of human L-selectin in SHMCK buffer [20 mM HEPES, 120 mM NaCl, 5 mM KCl, 1 mM MgCl_2, 1 mM CaCl_2, 4 µM tRNA, (pH 7.4)] and incubated for 10 minutes at 37° C. Then, L-selectin ligand beacon was added to a final concentration equivalent to that of the aptamer, incubated additional 10 minutes at 37° C. and fluorescence was measured. The results are depicted in FIGS. 7A and B. It can be seen that the dynamic range of the assay can be easily varied by changing the concentration of the nucleic acid ligand/ligand beacon pair. […] The fluorescence signal was then measured as described above. […]"}, "[3]": {"target": "T1, PDGF-AB (platelet-derived growth factor …)", "experiment": "competition; ligand beacon (SEQ:2) fluorescence decreases with protein; 160 nM aptamer, PBSM buffer 1 mM MgCl2, 4 uM tRNA, pH 7.4, 37C; also detected in plasma; FIG. 3A lists aptamer as SEQ:10", "conditions": "tags: R & D Systems; chain copies: heterodimer A+B (stated); predicted 3-way junction", "method": "Example 5 Protein Detection Using Ligand Beacon Assays PDGF AB-Dimer The PDGF ligand beacon was used in an assay in which 160 nM PDGF nucleic acid ligand (SEQ ID NO:1) was mixed with an increasing concentration of PDGF AB-dimer in PBSM buffer [10.1 mM Na_2HPO_4, 1.8 mM KH_2PO_4, 137 mM NaCl, 2.7 mM KCl, 1 mM MgCl_2, 4 μM tRNA (pH 7.4)] for 10 minutes at 37° C. Then, ligand beacon (SEQ ID NO:2) was added to a final concentration of 160 nM and the mixture was incubated for 10 minutes at 37° C. A measurement of fluorescein emission at 530 nm was made for each concentration of PDGF using 488 nm monochromatic laser light for excitation in a 96 well format Vistra Fluorimager SI. The average value of fluorescence signals derived from duplicates was plotted against the corresponding log concentration of the concentration PDGF AB-dimer in nanomoles."}, "[4]": {"target": "T2, L-selectin (Homo sapiens, UniProt P14151 P14151:39-332)", "T2 sequence": "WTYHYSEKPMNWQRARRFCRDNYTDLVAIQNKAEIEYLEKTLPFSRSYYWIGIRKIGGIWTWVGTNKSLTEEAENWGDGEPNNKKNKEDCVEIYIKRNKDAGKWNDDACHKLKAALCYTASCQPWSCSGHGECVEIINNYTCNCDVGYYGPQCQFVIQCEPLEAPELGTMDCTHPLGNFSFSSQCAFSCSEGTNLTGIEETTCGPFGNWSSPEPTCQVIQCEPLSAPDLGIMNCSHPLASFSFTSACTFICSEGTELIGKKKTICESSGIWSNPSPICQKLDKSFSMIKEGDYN", "experiment": "competition; specificity control, little or no fluorescence change; 200 nM aptamer, SHMCK, 4 uM tRNA, 37C", "conditions": "tags: R & D Systems", "method": "(§2) Specifically, L-Selectin nucleic acid ligand (200 nM) was mixed with increasing concentrations of P-Selectin in SHMCK buffer containing 4 µM tRNA. The mixture was incubated at 37° C. for 15 minutes. Then 220 nM L-Selectin ligand beacon was added and the mixture was incubated an additional 10 minutes at the same temperature and fluorescence was measured (FIG. 8C; (•)). P-Selectin nucleic acid ligand (200 nM) was mixed with increasing concentrations of L-Selectin in SHMCK buffer containing 4 µM tRNA at 37° C. for 15 minutes. Then 220 nM P-Selectin ligand beacon was added, incubated for an additional 10 minutes at the same temperature and fluorescence was measured (FIG. 8C; (○))."}, "[5]": {"target": "T3, P-selectin (Homo sapiens, UniProt P16109 P16109:42-771)", "T3 sequence (P16109 42-771, one chain of several)": "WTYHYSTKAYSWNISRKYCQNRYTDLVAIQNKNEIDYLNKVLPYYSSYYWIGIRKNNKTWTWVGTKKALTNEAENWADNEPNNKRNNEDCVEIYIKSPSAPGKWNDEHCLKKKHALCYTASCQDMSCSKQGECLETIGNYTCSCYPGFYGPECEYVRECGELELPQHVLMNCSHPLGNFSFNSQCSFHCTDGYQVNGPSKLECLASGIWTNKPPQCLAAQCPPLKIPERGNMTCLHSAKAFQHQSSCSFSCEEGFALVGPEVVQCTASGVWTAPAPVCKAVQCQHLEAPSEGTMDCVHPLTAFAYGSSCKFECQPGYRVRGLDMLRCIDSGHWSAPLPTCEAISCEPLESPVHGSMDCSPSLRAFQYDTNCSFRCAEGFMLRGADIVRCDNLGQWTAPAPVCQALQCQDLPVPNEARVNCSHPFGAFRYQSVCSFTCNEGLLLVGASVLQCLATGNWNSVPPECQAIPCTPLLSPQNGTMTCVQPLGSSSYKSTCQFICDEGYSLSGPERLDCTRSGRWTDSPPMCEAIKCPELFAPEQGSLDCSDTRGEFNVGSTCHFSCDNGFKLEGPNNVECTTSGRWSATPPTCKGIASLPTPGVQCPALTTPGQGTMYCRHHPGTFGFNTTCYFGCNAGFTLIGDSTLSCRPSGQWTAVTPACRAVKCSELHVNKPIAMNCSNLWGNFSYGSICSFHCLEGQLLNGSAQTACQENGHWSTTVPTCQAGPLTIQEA", "experiment": "competition; ligand beacon (SEQ:8); 200 nM aptamer, SHMCK buffer 1 mM MgCl2 1 mM CaCl2, 4 uM tRNA, pH 7.4, 37C; also detected in plasma; FIG. 3A lists aptamer as SEQ:12", "conditions": "tags: R & D Systems", "method": "as §1, with “Human L-Selectin A fixed concentration of L-selectin aptamer was mixed with increasing concentration of human L-selectin in SHMCK buffer [20 mM HEPES, 120 mM NaCl, 5 mM KCl, 1 mM MgCl_2, 1 mM CaCl_2, 4 µM tRNA, (pH 7.4)] and incubated for 10 minutes at 37° C.” left out, “measured.” for “measured. The results are depicted in FIGS. 7A and B. It can be seen that the dynamic range of the assay can be easily varied by changing the concentration of the nucleic acid ligand/ligand beacon pair.”\nP-selectin aptamer (200 nM) was mixed with increasing concentration of human P-selectin in SHMCK buffer [20 mM HEPES, 120 mM NaCl, 5 mM KCl, 1 mM MgCl_2, 1 mM CaCl_2, 4µM tRNA, (pH 7.4)] and incubated for 10 minutes at 37° C. Then, P-selectin ligand beacon was added to a final concentration of 200 nM, incubated for additional 10 minutes at 37° C. and fluorescence was measured. […]"}, "[6]": {"target": "T3, P-selectin", "experiment": "competition; specificity control, little or no fluorescence change; 200 nM aptamer, SHMCK, 4 uM tRNA, 37C", "conditions": "tags: R & D Systems", "method": "as §2"}, "[7]": {"target": "T2, L-selectin", "experiment": "competition; ligand beacon (SEQ:6); 200 or 800 nM aptamer, SHMCK buffer 1 mM MgCl2 1 mM CaCl2, 4 uM tRNA, pH 7.4, 37C; also detected in plasma", "conditions": "tags: R & D Systems", "method": "as §1"}}}
{"binder": "Taq aptamer (ssDNA) DNA: TGGCGGAGCGATCATCTCAGAGCATTCTTAGCGTTTTGTTCTTGTGTATGA", "values": [{"measurement": "binding result", "setting": "[1]", "value": "no binding"}, {"measurement": "binding result", "setting": "[2]", "value": "binds"}]}
{"binder": "TGGGAGGGCGCGTTCTTCGTGGTTACTTTTAGTCCCGT (ssDNA)", "note": "[PDGF aptamer]", "values": [{"measurement": "binding result", "setting": "[3]", "value": "binds"}]}
{"binder": "CUCAACGAGCCAGGAACAUCGAGGUCAGCAAACGCGAG (ssRNA, 2'-F at all pyrimidines)", "note": "[P-selectin aptamer]", "values": [{"measurement": "binding result", "setting": "[4]", "value": "no binding"}, {"measurement": "binding result", "setting": "[5]", "value": "binds"}]}
{"binder": "TAGCCAAGGTAACCAGTACAAGGTGCTAAACGTAATGGCTTCGGCTTAC (ssDNA)", "note": "[L-selectin aptamer]", "values": [{"measurement": "binding result", "setting": "[6]", "value": "no binding"}, {"measurement": "binding result", "setting": "[7]", "value": "binds"}]}
